From patent publication US20200405854A1, “Combination Therapies Comprising Daratumumab, Bortezomib, Thalidomide and Dexamethasone and Their Uses” (Janssen Biotech, Inc., priority 2019, published 2020)
Like-named read-outs stand apart in the source and are kept apart here.

Tests used:
[1] = system: patients with multiple myeloma; experiment: Immunogenicity, anti-daratumumab antibodies; assay type: in vivo, human
From the text: As with all therapeutic proteins, there is the potential for immunogenicity. The detection of antibody formation is highly dependent on the sensitivity and specificity of the assay. Additionally, the observed incidence of antibody (including neutralizing antibody) positivity in an assay may be influenced by several factors including assay methodology, sample handling, timing of sample collection, concomitant medications, and underlying disease. For these reasons, comparison of the incidence of antibodies to daratumumab in the studies described below with the incidence of antibodies in other studies or to other products may be misleading. […] One patient administered DARZALEX as combination therapy, developed transient neutralizing antibodies against daratumumab. However, this assay has limitations in detecting anti-daratumumab antibodies in the presence of high concentrations of daratumumab; therefore, the incidence of antibody development might not have been reliably determined.

NK cells = experiment: Pharmacodynamics, NK cells; assay type: in vivo, human; conditions: peripheral whole blood and bone marrow
From the text: NK cells express CD38 and are susceptible to daratumumab mediated cell lysis.

[2] = system: patients with relapsed or refractory multiple myeloma; experiment: Study GEN501 open-label dose escalation monotherapy trial, efficacy; assay type: in vivo, human
From the text: (§1) Treatment continued until unacceptable toxicity or disease progression.
Seventy-four percent of patients had received prior ASCT. Prior therapies included bortezomib (100%), lenalidomide (95%), pomalidomide (36%) and carfilzomib (19%).

[3] = system: adult patients with relapsed and refractory multiple myeloma; experiment: Monotherapy safety, three open-label clinical trials; assay type: in vivo, human
From the text: Serious adverse reactions were reported in 51 (33%) patients.

[4] = Clinical pharmacokinetics; assay type: in vivo, human
[5] = Solution pH and storage of diluted solution; assay type: physicochemical
From the text: Prepare the solution for infusion using aseptic technique as follows: • Calculate the dose (mg), total volume (mL) of DARZALEX solution required and the number of DARZALEX vials needed based on patient actual body weight. • Check that the DARZALEX solution is colorless to pale yellow. […] Infusion bags/containers must be made of either polyvinylchloride (PVC), polypropylene (PP), polyethylene (PE) or polyolefin blend (PP+PE). Dilute under appropriate aseptic conditions. Discard any unused portion left in the vial. • Gently invert the bag/container to mix the solution. […] The diluted solution may develop very small, translucent to white proteinaceous particles, as daratumumab is a protein. […] (59° F.−77° F.) and in room light. Diluted solution may be kept at room temperature for a maximum of 15 hours (including infusion time). • If not used immediately, the diluted solution can be stored prior to administration for up to 24 hours at refrigerated conditions 2° C.−8° C. (36° F.−46° F.) and protected from light.
DARZALEX is supplied as a colorless to pale yellow preservative-free solution for intravenous infusion in single-dose vials. The pH is 5.5.

[6] = Cardiac electrophysiology; conditions: non-clinical or clinical data
[7] = system: patients with multiple myeloma
[8] = system: patients with newly diagnosed multiple myeloma eligible for ASCT; experiment: CASSIOPEIA, adverse reactions and laboratory abnormalities
[9] = target: T1, CD38 on red blood cells (RBCs) (Homo sapiens, UniProt P28907); experiment: Indirect Antiglobulin Test (Indirect Coombs test) interference
T1 construct: endogenous in cells; host or cells: red blood cells (reagent RBCs / donor RBCs in blood-bank testing)
From the text: Daratumumab binds to CD38 on red blood cells (RBCs) and results in a positive Indirect Antiglobulin Test (Indirect Coombs test). Daratumumab-mediated positive indirect antiglobulin test may persist for up to 6 months after the last daratumumab infusion. Daratumumab bound to RBCs masks detection of antibodies to minor antigens in the patient's serum [see References (15)]. The determination of a patient's ABO and Rh blood type are not impacted [see Drug Interactions (7.1)].
Daratumumab binds to CD38 on RBCs and interferes with compatibility testing, including antibody screening and cross matching. Daratumumab interference mitigation methods include treating reagent RBCs with dithiothreitol (DTT) to disrupt daratumumab binding [see References (15)] or genotyping. Since the Kell blood group system is also sensitive to DTT treatment, K-negative units should be supplied after ruling out or identifying alloantibodies using DTT-treated RBCs.

[10] = system: patients with relapsed or refractory multiple myeloma; experiment: SIRIUS open-label monotherapy trial, efficacy; assay type: in vivo, human
From the text: as §1
The median patient age was 63.5 years (range: 31 to 84 years), 49% were male and 79% were Caucasian. Patients had received a median of 5 prior lines of therapy. […] Prior therapies included bortezomib (99%), lenalidomide (99%), pomalidomide (63%) and carfilzomib (50%).

With “DARZALEX: immunoglobulin G1 kappa (IgG1κ) human monoclonal antibody against CD38 antigen; HC SEQ ID NO: 9, LC SEQ ID NO: 10” the “patients tested positive for anti-daratumumab antibodies” value ([1]; 111 evaluable monotherapy patients) was “none”, the “patients tested positive for anti-daratumumab antibodies” value ([1]; of the 1,050 evaluable combination therapy patients) was 2 and the “absolute counts and percentages of total NK cells and activated NK cells” value (NK cells) was “Decreases”. For the same substance, the “CR, number of patients” value ([2]; 16 mg/kg, 42 patients) was 1, the Overall response rate ([2]; 16 mg/kg, 42 patients) was 36% and the “VGPR, number of patients” value ([2]; 16 mg/kg, 42 patients) was 3. For the same substance, the “median duration of response” value ([2]; in vivo) was “not estimable”, the “median time to response” value ([2]; in vivo) was 1 month and the “Anemia, laboratory abnormality” value ([3]; Any Grade) was 45%. For the same substance, the Arthralgia ([3]; Any Grade) was 17%, the Back pain ([3]; Any Grade) was 23% and the Chills ([3]; Any Grade) was 10%. For the same substance, the Constipation ([3]; Any Grade) was 15%, the Cough ([3]; Any Grade) was 21% and the Decreased appetite ([3]; Any Grade) was 15%. It also gave a Diarrhea ([3]; Any Grade) of 16%, a Dyspnea ([3]; Any Grade) of 15% and a Fatigue ([3]; Any Grade) of 39%. It also gave a Headache ([3]; Any Grade) of 12%, a Hypertension ([3]; Any Grade) of 10% and an Infusion reaction ([3]; Any Grade) of 48%. The “Lymphopenia, laboratory abnormality” value ([3]; Any Grade) was 72%, the Musculoskeletal chest pain ([3]; Any Grade) was 12% and the Nasal congestion ([3]; Any Grade) was 17%. The Nasopharyngitis ([3]; Any Grade) was 15%, the Nausea ([3]; Any Grade) was 27% and the “Neutropenia, laboratory abnormality” value ([3]; Any Grade) was 60%. For the same substance, the Pain in extremity ([3]; Any Grade) was 15%, the Pneumonia ([3]; Any Grade) was 11% and the Pyrexia ([3]; Any Grade) was 21%. The “Thrombocytopenia, laboratory abnormality” value ([3]; Any Grade) was 48%, the “Upper respiratory tract infection” value ([3]; Any Grade) was 20% and the Vomiting ([3]; Any Grade) was 14%. The “Anemia, laboratory abnormality” value ([3]; Grade 3) was 19%, the Arthralgia ([3]; Grade 3) was 0% and the Back pain ([3]; Grade 3) was 2%. The Chills ([3]; Grade 3) was 0%, the Constipation ([3]; Grade 3) was 0% and the Cough ([3]; Grade 3) was 0%. For the same substance, the Decreased appetite ([3]; Grade 3) was 1%, the Diarrhea ([3]; Grade 3) was 1% and the Dyspnea ([3]; Grade 3) was 1%. It also gave a Fatigue ([3]; Grade 3) of 2%, a Headache ([3]; Grade 3) of 1% and a Hypertension ([3]; Grade 3) of 5%. For the same substance, the Infusion reaction ([3]; Grade 3) was 3%, the “Lymphopenia, laboratory abnormality” value ([3]; Grade 3) was 30% and the Musculoskeletal chest pain ([3]; Grade 3) was 1%. For the same substance, the Nasal congestion ([3]; Grade 3) was 0%, the Nasopharyngitis ([3]; Grade 3) was 0% and the Nausea ([3]; Grade 3) was 0%. The “Neutropenia, laboratory abnormality” value ([3]; Grade 3) was 17%, the Pain in extremity ([3]; Grade 3) was 1% and the Pneumonia ([3]; Grade 3) was 6%. For the same substance, the Pyrexia ([3]; Grade 3) was 1%, the “Thrombocytopenia, laboratory abnormality” value ([3]; Grade 3) was 10% and the “Upper respiratory tract infection” value ([3]; Grade 3) was 1%. The Vomiting ([3]; Grade 3) was 0%, the “Anemia, laboratory abnormality” value ([3]; Grade 4) was 0% and the Arthralgia ([3]; Grade 4) was 0%. It also gave a Back pain ([3]; Grade 4) of 0%, a Chills ([3]; Grade 4) of 0% and a Constipation ([3]; Grade 4) of 0%. The Cough ([3]; Grade 4) was 0%, the Decreased appetite ([3]; Grade 4) was 0% and the Diarrhea ([3]; Grade 4) was 0%. It also gave a Dyspnea ([3]; Grade 4) of 0%, a Fatigue ([3]; Grade 4) of 0% and a Headache ([3]; Grade 4) of 0%. For the same substance, the Hypertension ([3]; Grade 4) was 0%, the Infusion reaction ([3]; Grade 4) was 0% and the “Lymphopenia, laboratory abnormality” value ([3]; Grade 4) was 10%. It also gave a Musculoskeletal chest pain ([3]; Grade 4) of 0%, a Nasal congestion ([3]; Grade 4) of 0% and a Nasopharyngitis ([3]; Grade 4) of 0%. For the same substance, the Nausea ([3]; Grade 4) was 0%, the “Neutropenia, laboratory abnormality” value ([3]; Grade 4) was 3% and the Pain in extremity ([3]; Grade 4) was 0%. For the same substance, the Pneumonia ([3]; Grade 4) was 0%, the Pyrexia ([3]; Grade 4) was 0% and the “Thrombocytopenia, laboratory abnormality” value ([3]; Grade 4) was 8%. For the same substance, the “Upper respiratory tract infection” value ([3]; Grade 4) was 0%, the Vomiting ([3]; Grade 4) was 0% and the serious adverse reactions ([3]; monotherapy 16 mg/kg, 156 patients) was 33%. For the same substance, the “area under the concentration-time curve (AUC), dose dependence” value ([4]; 1 to 24 mg/kg monotherapy or 1 to 16 mg/kg combination therapy) was “increases more than proportionally”, the “drug-drug interactions between daratumumab and lenalidomide, pomalidomide, bortezomib and dexamethasone” value ([4]; clinical pharmacokinetic assessments) was “no clinically relevant drug-drug interactions” and the “terminal half-life compared with monotherapy” value ([4]; combination therapy) was “similar”. For the same substance, the volume of distribution ([4]; combination therapy) was 4.4 ± 1.5 L, the “trough serum concentration (Cmin), mean±SD” value ([4]; end of weekly dosing, monotherapy) was 573 ± 332 µg/mL and the “central volume of distribution and clearance with increasing body weight” value ([4]; human, in vivo) was “increased”. The “clearance with increasing dose and with multiple dosing” value ([4]; human, in vivo) was “decreased”, the “linear clearance, mean±SD” value ([4]; monotherapy) was 171.4 ± 95.3 mL/day and the “terminal half-life associated with linear clearance, mean±SD” value ([4]; monotherapy) was 18 ± 9 days. The volume of distribution ([4]; monotherapy) was 4.7 ± 1.3 L, the “differences in pharmacokinetics based on sex, age, mild and moderate hepatic impairment, or renal impairment” value ([4]; monotherapy or combination therapy) was “No clinically significant differences” and the “time to steady state” value ([4]; monotherapy, into the every 4-week dosing period (by the 21st infusion)) was “approximately 5 months”. The “time diluted solution can be stored prior to administration” value ([5]; refrigerated 2° C.−8° C., protected from light) was “up to 24 hours”, the “time diluted solution may be kept” value ([5]; room temperature, including infusion time) was no more than 15 h and the pH ([5]; solution for intravenous infusion) was 5.5. For the same substance, the “potential to delay ventricular repolarization” value [6] was “no evidence”, the “incidence of any grade infusion reactions” value ([7]; Week 2 infusion) was 2% and the “Grade 3/4 infusion reaction” value ([7]; Week 2 or subsequent infusions) was “Less than 1%”. The “incidence of any grade infusion reactions” value ([7]; cumulatively, subsequent infusions) was 6%, the “incidence of any grade infusion reactions” value ([7]; first (16 mg/kg, Week 1) infusion) was 37% and the “incidence of infusion modification due to reactions” value ([7]; human, in vivo) was 36%. The “Hepatitis B virus reactivation” value ([7]; including fatal cases) was “less than 1%”, the “time of infusion reactions after completing DARZALEX” value ([7]; nearly all reactions, during infusion or within) was no more than 4 h and the “time of infusion reactions after infusion” value ([7]; prior to the introduction of post-infusion medication) was “up to 48 hours”. The “patients who experienced an infusion reaction” value ([7]; share of all patients in clinical trials) was “approximately half”, the “IRRs Grade 3 or 4” value ([8]; at re-initiation following ASCT) was less than 1% and the “incidence of IRRs” value ([8]; first infusion following ASCT, upon re-initiation) was 11%. The “Indirect Antiglobulin Test (Indirect Coombs test) result” value [9] was “positive”, the “persistence of positive indirect antiglobulin test after the last infusion” value [9] was “up to 6 months” and the “Overall response rate (ORR)” value ([10]; N = 106) was 29.2%. The “Partial response (PR)” value ([10]; in vivo) was 17.0%, the “Stringent complete response (sCR)” value ([10]; in vivo) was 2.8% and the “Very good partial response (VGPR)” value ([10]; in vivo) was 9.4%. For the same substance, the “median duration of response” value ([10]; in vivo) was 7.4 months, the “median time to response” value ([10]; in vivo) was 1 month and the “Complete response (CR)” value ([10]; number of patients) was 0. For the same substance, the “Overall response rate (ORR)” value ([10]; number of patients) was 31, the “Partial response (PR)” value ([10]; number of patients) was 18 and the “Stringent complete response (sCR)” value ([10]; number of patients) was 3. The “Very good partial response (VGPR)” value ([10]; number of patients) was 10.
